Results on 2 substances are retold here after publication PMC3928670.

Test [1] has as its target McbB/D (Escherichia coli) (UniProt P23184). The conditions noted are these: cited from earlier work.
Test [2] has as its target BcerB, TOMM dehydrogenase (B-protein) from Bacillus cereus 172560W (Bacillus cereus 172560W). Description: fluorescence polarisation.

Sequence of UniProt P23184 (P23184 whole entry, chain 1 of 2): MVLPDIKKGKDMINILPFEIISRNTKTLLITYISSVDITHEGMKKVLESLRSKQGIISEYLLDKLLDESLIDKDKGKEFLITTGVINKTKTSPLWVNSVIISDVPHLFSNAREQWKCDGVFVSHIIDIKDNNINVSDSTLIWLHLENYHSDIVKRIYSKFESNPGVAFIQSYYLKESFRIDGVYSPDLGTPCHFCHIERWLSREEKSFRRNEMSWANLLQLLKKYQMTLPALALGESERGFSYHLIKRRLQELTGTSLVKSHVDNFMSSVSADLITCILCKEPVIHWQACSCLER
Sequence of UniProt P23184 (P23186 whole entry, chain 2 of 2, further chain): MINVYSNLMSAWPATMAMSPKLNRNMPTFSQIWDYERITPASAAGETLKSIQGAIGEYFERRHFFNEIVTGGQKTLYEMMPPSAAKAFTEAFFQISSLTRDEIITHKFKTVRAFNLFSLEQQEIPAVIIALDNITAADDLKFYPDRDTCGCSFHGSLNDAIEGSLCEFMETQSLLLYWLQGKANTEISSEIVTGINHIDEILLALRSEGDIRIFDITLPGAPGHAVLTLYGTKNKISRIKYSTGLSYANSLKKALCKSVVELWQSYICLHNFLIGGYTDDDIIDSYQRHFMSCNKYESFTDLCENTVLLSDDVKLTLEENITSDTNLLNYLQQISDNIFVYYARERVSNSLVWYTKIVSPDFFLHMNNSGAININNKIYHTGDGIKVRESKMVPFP

As to McbC (from UniProt P23185), the dissociation constant (Kd) (in general, the constant that tells how readily two partners part at equilibrium) in test [1] is 1.8 µM.
In turn, “Balh cyclodehydratase (BalhC/D) from Bacillus sp. Al Hakam (complex)” returned an equilibrium dissociation constant (Kd) in test [2] of 1.7 µM.
